The values that follow come from patent publication US20200087373A1 (UNIVERSITY OF COPENHAGEN, published 2020).

Ends that are not written are not given here. * marks the point of attachment. C18 diacid = O=C(O)CCCCCCCCCCCCCCCCC(=O)*; C16 diacid = O=C(O)CCCCCCCCCCCCCCC(=O)*; C14 diacid = O=C(O)CCCCCCCCCCCCC(=O)*; Palmitoyl = CCCCCCCCCCCCCCCC(=O)*; Lauroyl = CCCCCCCCCCCC(=O)*

Sequences and labels used below:
B1: AT138 [hGIP(5-30)NH2-C18diacid/5] (peptide)
peptide: {C18 diacid}-TFISDYSIAMDKIHQQDFVNWLLAQK-NH2
SMILES: CC[C@H](C)[C@H](NC(=O)[C@H](CO)NC(=O)[C@H](Cc1ccc(O)cc1)NC(=O)[C@H](CC(=O)O)NC(=O)[C@H](CO)NC(=O)[C@@H](NC(=O)[C@H](Cc1ccccc1)NC(=O)[C@@H](NC(=O)CCCCCCCCCCCCCCCCC(=O)O)[C@@H](C)O)[C@@H](C)CC)C(=O)N[C@@H](C)C(=O)N[C@@H](CCSC)C(=O)N[C@@H](CC(=O)O)C(=O)N[C@@H](CCCCN)C(=O)N[C@H](C(=O)N[C@@H](Cc1c[nH]cn1)C(=O)N[C@@H](CCC(N)=O)C(=O)N[C@@H](CCC(N)=O)C(=O)N[C@@H](CC(=O)O)C(=O)N[C@@H](Cc1ccccc1)C(=O)N[C@H](C(=O)N[C@@H](CC(N)=O)C(=O)N[C@@H](Cc1c[nH]c2ccccc12)C(=O)N[C@@H](CC(C)C)C(=O)N[C@@H](CC(C)C)C(=O)N[C@@H](C)C(=O)N[C@@H](CCC(N)=O)C(=O)N[C@@H](CCCCN)C(N)=O)C(C)C)[C@@H](C)CC
B2: AT136 [hGIP(5-30)NH2-C14diacid/5] (peptide)
peptide: {C14 diacid}-TFISDYSIAMDKIHQQDFVNWLLAQK-NH2
SMILES: CC[C@H](C)[C@H](NC(=O)[C@H](CO)NC(=O)[C@H](Cc1ccc(O)cc1)NC(=O)[C@H](CC(=O)O)NC(=O)[C@H](CO)NC(=O)[C@@H](NC(=O)[C@H](Cc1ccccc1)NC(=O)[C@@H](NC(=O)CCCCCCCCCCCCC(=O)O)[C@@H](C)O)[C@@H](C)CC)C(=O)N[C@@H](C)C(=O)N[C@@H](CCSC)C(=O)N[C@@H](CC(=O)O)C(=O)N[C@@H](CCCCN)C(=O)N[C@H](C(=O)N[C@@H](Cc1c[nH]cn1)C(=O)N[C@@H](CCC(N)=O)C(=O)N[C@@H](CCC(N)=O)C(=O)N[C@@H](CC(=O)O)C(=O)N[C@@H](Cc1ccccc1)C(=O)N[C@H](C(=O)N[C@@H](CC(N)=O)C(=O)N[C@@H](Cc1c[nH]c2ccccc12)C(=O)N[C@@H](CC(C)C)C(=O)N[C@@H](CC(C)C)C(=O)N[C@@H](C)C(=O)N[C@@H](CCC(N)=O)C(=O)N[C@@H](CCCCN)C(N)=O)C(C)C)[C@@H](C)CC
B3: AT118 [hGIP(5-30)NH2-C12/5] (peptide)
peptide: Lauroyl-TFISDYSIAMDKIHQQDFVNWLLAQK-NH2
SMILES: CCCCCCCCCCCC(=O)N[C@H](C(=O)N[C@@H](Cc1ccccc1)C(=O)N[C@H](C(=O)N[C@@H](CO)C(=O)N[C@@H](CC(=O)O)C(=O)N[C@@H](Cc1ccc(O)cc1)C(=O)N[C@@H](CO)C(=O)N[C@H](C(=O)N[C@@H](C)C(=O)N[C@@H](CCSC)C(=O)N[C@@H](CC(=O)O)C(=O)N[C@@H](CCCCN)C(=O)N[C@H](C(=O)N[C@@H](Cc1c[nH]cn1)C(=O)N[C@@H](CCC(N)=O)C(=O)N[C@@H](CCC(N)=O)C(=O)N[C@@H](CC(=O)O)C(=O)N[C@@H](Cc1ccccc1)C(=O)N[C@H](C(=O)N[C@@H](CC(N)=O)C(=O)N[C@@H](Cc1c[nH]c2ccccc12)C(=O)N[C@@H](CC(C)C)C(=O)N[C@@H](CC(C)C)C(=O)N[C@@H](C)C(=O)N[C@@H](CCC(N)=O)C(=O)N[C@@H](CCCCN)C(N)=O)C(C)C)[C@@H](C)CC)[C@@H](C)CC)[C@@H](C)CC)[C@@H](C)O
B4: AT135 [hGIP(5-30)NH2[K16R; K30R]-C16/5] (peptide)
peptide: Palmitoyl-TFISDYSIAMDRIHQQDFVNWLLAQR-NH2
SMILES: CCCCCCCCCCCCCCCC(=O)N[C@H](C(=O)N[C@@H](Cc1ccccc1)C(=O)N[C@H](C(=O)N[C@@H](CO)C(=O)N[C@@H](CC(=O)O)C(=O)N[C@@H](Cc1ccc(O)cc1)C(=O)N[C@@H](CO)C(=O)N[C@H](C(=O)N[C@@H](C)C(=O)N[C@@H](CCSC)C(=O)N[C@@H](CC(=O)O)C(=O)N[C@@H](CCCNC(=N)N)C(=O)N[C@H](C(=O)N[C@@H](Cc1c[nH]cn1)C(=O)N[C@@H](CCC(N)=O)C(=O)N[C@@H](CCC(N)=O)C(=O)N[C@@H](CC(=O)O)C(=O)N[C@@H](Cc1ccccc1)C(=O)N[C@H](C(=O)N[C@@H](CC(N)=O)C(=O)N[C@@H](Cc1c[nH]c2ccccc12)C(=O)N[C@@H](CC(C)C)C(=O)N[C@@H](CC(C)C)C(=O)N[C@@H](C)C(=O)N[C@@H](CCC(N)=O)C(=O)N[C@@H](CCCNC(=N)N)C(N)=O)C(C)C)[C@@H](C)CC)[C@@H](C)CC)[C@@H](C)CC)[C@@H](C)O
B5: AT134 [hGIP(5-30)NH2[K16R; H18K; K30R]-C16/18] (peptide)
peptide: TFISDYSIAMDRIK(Palmitoyl)QQDFVNWLLAQR-NH2
modifications: N-terminus assumed
SMILES: CCCCCCCCCCCCCCCC(=O)NCCCC[C@H](NC(=O)[C@@H](NC(=O)[C@H](CCCNC(=N)N)NC(=O)[C@H](CC(=O)O)NC(=O)[C@H](CCSC)NC(=O)[C@H](C)NC(=O)[C@@H](NC(=O)[C@H](CO)NC(=O)[C@H](Cc1ccc(O)cc1)NC(=O)[C@H](CC(=O)O)NC(=O)[C@H](CO)NC(=O)[C@@H](NC(=O)[C@H](Cc1ccccc1)NC(=O)[C@@H](N)[C@@H](C)O)[C@@H](C)CC)[C@@H](C)CC)[C@@H](C)CC)C(=O)N[C@@H](CCC(N)=O)C(=O)N[C@@H](CCC(N)=O)C(=O)N[C@@H](CC(=O)O)C(=O)N[C@@H](Cc1ccccc1)C(=O)N[C@H](C(=O)N[C@@H](CC(N)=O)C(=O)N[C@@H](Cc1c[nH]c2ccccc12)C(=O)N[C@@H](CC(C)C)C(=O)N[C@@H](CC(C)C)C(=O)N[C@@H](C)C(=O)N[C@@H](CCC(N)=O)C(=O)N[C@@H](CCCNC(=N)N)C(N)=O)C(C)C
B6: AT133 [hGIP(5-30)NH2[K16R; H18K; K30R]-C16/5] (peptide)
peptide: Palmitoyl-TFISDYSIAMDRIKQQDFVNWLLAQR-NH2
SMILES: CCCCCCCCCCCCCCCC(=O)N[C@H](C(=O)N[C@@H](Cc1ccccc1)C(=O)N[C@H](C(=O)N[C@@H](CO)C(=O)N[C@@H](CC(=O)O)C(=O)N[C@@H](Cc1ccc(O)cc1)C(=O)N[C@@H](CO)C(=O)N[C@H](C(=O)N[C@@H](C)C(=O)N[C@@H](CCSC)C(=O)N[C@@H](CC(=O)O)C(=O)N[C@@H](CCCNC(=N)N)C(=O)N[C@H](C(=O)N[C@@H](CCCCN)C(=O)N[C@@H](CCC(N)=O)C(=O)N[C@@H](CCC(N)=O)C(=O)N[C@@H](CC(=O)O)C(=O)N[C@@H](Cc1ccccc1)C(=O)N[C@H](C(=O)N[C@@H](CC(N)=O)C(=O)N[C@@H](Cc1c[nH]c2ccccc12)C(=O)N[C@@H](CC(C)C)C(=O)N[C@@H](CC(C)C)C(=O)N[C@@H](C)C(=O)N[C@@H](CCC(N)=O)C(=O)N[C@@H](CCCNC(=N)N)C(N)=O)C(C)C)[C@@H](C)CC)[C@@H](C)CC)[C@@H](C)CC)[C@@H](C)O
B7: AT137 [hGIP(5-30)NH2-C16diacid/5] (peptide)
peptide: {C16 diacid}-TFISDYSIAMDKIHQQDFVNWLLAQK-NH2
SMILES: CC[C@H](C)[C@H](NC(=O)[C@H](CO)NC(=O)[C@H](Cc1ccc(O)cc1)NC(=O)[C@H](CC(=O)O)NC(=O)[C@H](CO)NC(=O)[C@@H](NC(=O)[C@H](Cc1ccccc1)NC(=O)[C@@H](NC(=O)CCCCCCCCCCCCCCC(=O)O)[C@@H](C)O)[C@@H](C)CC)C(=O)N[C@@H](C)C(=O)N[C@@H](CCSC)C(=O)N[C@@H](CC(=O)O)C(=O)N[C@@H](CCCCN)C(=O)N[C@H](C(=O)N[C@@H](Cc1c[nH]cn1)C(=O)N[C@@H](CCC(N)=O)C(=O)N[C@@H](CCC(N)=O)C(=O)N[C@@H](CC(=O)O)C(=O)N[C@@H](Cc1ccccc1)C(=O)N[C@H](C(=O)N[C@@H](CC(N)=O)C(=O)N[C@@H](Cc1c[nH]c2ccccc12)C(=O)N[C@@H](CC(C)C)C(=O)N[C@@H](CC(C)C)C(=O)N[C@@H](C)C(=O)N[C@@H](CCC(N)=O)C(=O)N[C@@H](CCCCN)C(N)=O)C(C)C)[C@@H](C)CC

For the first assay, the target named is T1, human GIP receptor (human, UniProt P48546 22-466).
T1 construct: whole, on cells; also called hGIPR
T1 sequence (looked up): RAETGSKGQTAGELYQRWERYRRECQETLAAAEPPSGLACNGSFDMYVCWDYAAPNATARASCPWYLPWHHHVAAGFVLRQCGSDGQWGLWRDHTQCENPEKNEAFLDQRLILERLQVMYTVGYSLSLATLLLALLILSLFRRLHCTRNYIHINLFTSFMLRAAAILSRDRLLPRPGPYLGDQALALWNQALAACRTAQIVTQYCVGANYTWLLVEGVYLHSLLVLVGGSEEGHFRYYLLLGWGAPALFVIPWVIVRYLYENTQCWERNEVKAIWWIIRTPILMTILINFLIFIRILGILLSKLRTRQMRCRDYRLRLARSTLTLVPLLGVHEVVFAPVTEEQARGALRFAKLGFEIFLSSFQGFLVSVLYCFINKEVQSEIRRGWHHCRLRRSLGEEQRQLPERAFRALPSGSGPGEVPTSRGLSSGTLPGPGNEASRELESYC
Briefly: 125I-hGIP competition binding, COS-7/hGIPR, 2% HSA.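 Note: nonspecific binding defined as radioligand binding to untransfected cells.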
Method: (§1) After incubation, the cells were washed twice in ice-cold binding buffer (+/−2% HSA) and lysed using 200 mM NaOH with 1% SDS for 30 min. Nonspecific binding was determined as the binding of radioactive ligand to untransfected cells.
For the molecule B1, the IC50 came out at 10100 nM and the logIC50 was -5 log M.

B2 showed a half-maximal inhibitory concentration (IC50) of 713 nM and a logIC50 of -6.1 log M.

Molecule B3 registered an IC50 of 881 nM and a logIC50 of -6.1 log M.

B4 gave an IC50 of 977 nM and a logIC50 of -6 log M.

The molecule B5 displayed an IC50 of 4890 nM and a logIC50 of -5.3 log M.

B6 returned an IC50 of 2200 nM and a logIC50 of -5.7 log M.

B7: the IC50 was 555 nM and the logIC50 was -6.3 log M.

Another assay deals with T1, human GIP receptor. Briefly: 125I-hGIP competition binding, COS-7/hGIPR, 0.1% casein.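 Note: nonspecific binding defined as radioligand binding measured on untransfected cells.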
Method: as §1
In the case of B1, the IC50 came out at 2640 nM and the logIC50 was -5.6 log M.

On to B2, for which the IC50 amounted to 45 nM and the logIC50 is -7.3 log M.

Regarding B3, the IC50 was determined as 115 nM and the logIC50 is -6.9 log M.

In the case of B4, the IC50 was found to be 5940 nM and the logIC50 is -5.2 log M.

Consider B5, for which the IC50 was found to be 882 nM and the logIC50 was -6.1 log M.

As to B6, the IC50 turned out to be 1720 nM and the logIC50 is -5.8 log M.

As for B7, the IC50 amounted to 286 nM and the logIC50 was -6.5 log M.

For a further assay, the target named is T1, human GIP receptor. In words: 125I-hGIP competition binding, COS-7 cells expressing hGIPR.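 Note: nonspecific binding taken as radioligand bound by untransfected cells, binding buffer with or without 2% HSA.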
Method: as §1
Regarding B1, the IC50 is 2640 nM and the “log IC50” value is -5.6 log M.

B2: the IC50 was 45.4 nM and the “log IC50” value is -7.3 log M.

On to B3, for which the IC50 is 102 nM and the “log IC50” value was -7 log M.

B4: the IC50 turned out to be 5940 nM and the “log IC50” value was -5.2 log M.

With B5, the IC50 amounted to 882 nM and the “log IC50” value was -6.1 log M.

For B6, the IC50 came out at 1720 nM and the “log IC50” value is -5.8 log M.

B7: the IC50 stood at 286 nM and the “log IC50” value was -6.5 log M.

Another assay has as its target T1, human GIP receptor. Briefly: IC50 with 2% HSA over IC50 with 0.1% casein, 125I-hGIP competition, COS-7/hGIPR.
Method: as §1
For B1, the “Fold change HSA (2%)/Casein (0.1%)” value is 3.8 fold.

Regarding B2, the “Fold change HSA (2%)/Casein (0.1%)” value worked out at 15.7 fold.

Turning to B3, the “Fold change HSA (2%)/Casein (0.1%)” value amounted to 7.7 fold.

As to B4, the “Fold change HSA (2%)/Casein (0.1%)” value stood at 0.2 fold.

For B5, the “Fold change HSA (2%)/Casein (0.1%)” value is 5.5 fold.

As for B6, the “Fold change HSA (2%)/Casein (0.1%)” value turned out to be 1.3 fold.

For B7, the “Fold change HSA (2%)/Casein (0.1%)” value turned out to be 1.9 fold.

A word on the IC50: it is the concentration that inhibits the measured activity by half. Higher therefore signals a need for much substance.
